Measurements from IntAct's records for PubMed 31515488.

B1: Cytosolic 5'-nucleotidase 1A (Homo sapiens), Q9BXI3 (parent)
chain: MEPGQPREPQEPREPGPGAETAAAPVWEEAKIFYDNLAPKKKPKSPKPQNAVTIAVSSRALFRMDEEQQIYTEQGVEEYVRYQLEHENEPFSPGPAFPFVKALEAVNRRLRELYPDSEDVFDIVLMTNNHAQVGVRLINSINHYDLFIERFCMTGGNSPICYLKAYHTNLYLSADAEKVREAIDEGIAAATIFSPSRDVVVSQSQLRVAFDGDAVLFSDESERIVKAHGLDRFFEHEKAHENKPLAQGPLKGFLEALGRLQKKFYSKGLRLECPIRTYLVTARSAASSGARALKTLRSWGLETDEALFLAGAPKGPLLEKIRPHIFFDDQMFHVAGAQEMGTVAAHVPYGVAQTPRRTAPAKQAPSAQ
B2: DNA repair and recombination protein RAD54B (Homo sapiens), Q9Y620 (parent)
chain: MRRSAAPSQLQGNSFKKPKFIPPGRSNPGLNEEITKLNPDIKLFEGVAINNTFLPSQNDLRICSLNLPSEESTREINNRDNCSGKYCFEAPTLATLDPPHTVHSAPKEVAVSKEQEEKSDSLVKYFSVVWCKPSKKKHKKWEGDAVLIVKGKSFILKNLEGKDIGRGIGYKFKELEKIEEGQTLMICGKEIEVMGVISPDDFSSGRCFQLGGGSTAISHSSQVARKCFSNPFKSVCKPSSKENRQNDFQNCKPRHDPYTPNSLVMPRPDKNHQWVFNKNCFPLVDVVIDPYLVYHLRPHQKEGIIFLYECVMGMRMNGRCGAILADEMGLGKTLQCISLIWTLQCQGPYGGKPVIKKTLIVTPGSLVNNWKKEFQKWLGSERIKIFTVDQDHKVEEFIKSIFYSVLIISYEMLLRSLDQIKNIKFDLLICDEGHRLKNSAIKTTTALISLSCEKRIILTGTPIQNDLQEFFALIDFVNPGILGSLSSYRKIYEEPIILSREPSASEEEKELGERRAAELTCLTGLFILRRTQEIINKYLPPKIENVVFCRPGALQIELYRKLLNSQVVRFCLQGLLENSPHLICIGALKKLCNHPCLLFNSIKEKECSSTCDKNEEKSLYKGLLSVFPADYNPLLFTEKESGKLQVLSKLLAVIHELRPTEKVVLVSNYTQTLNILQEVCKRHGYAYTRLDGQTPISQRQQIVDGFNSQHSSFFIFLLSSKAGGVGLNLIGGSHLILYDIDWNPATDIQAMSRVWRDGQKYPVHIYRLLTTGTIEEKIYQRQISKQGLCGAVVDLTKTSEHIQFSVEELKNLFTLHESSDCVTHDLLDCECTGEEVHTGDSLEKFIVSRDCQLGPHHQKSNSLKPLSMSQLKQWKHFSGDHLNLTDPFLERITENVSFIFQNITTQATGT
partner: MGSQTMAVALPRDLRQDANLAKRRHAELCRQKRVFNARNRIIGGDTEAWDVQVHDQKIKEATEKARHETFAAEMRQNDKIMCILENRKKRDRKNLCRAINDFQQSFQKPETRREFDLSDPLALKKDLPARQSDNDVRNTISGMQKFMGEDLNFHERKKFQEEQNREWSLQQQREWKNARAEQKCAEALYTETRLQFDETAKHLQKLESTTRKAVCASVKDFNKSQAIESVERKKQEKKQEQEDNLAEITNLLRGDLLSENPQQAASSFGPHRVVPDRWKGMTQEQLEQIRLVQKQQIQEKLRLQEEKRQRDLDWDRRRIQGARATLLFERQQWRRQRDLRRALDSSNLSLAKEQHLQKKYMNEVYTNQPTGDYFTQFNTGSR
B3: Histone-lysine N-methyltransferase SMYD1 (Homo sapiens), Q8NB12 (parent)
chain: MTIGRMENVEVFTAEGKGRGLKATKEFWAADIIFAERAYSAVVFDSLVNFVCHTCFKRQEKLHRCGQCKFAHYCDRTCQKDAWLNHKNECSAIKRYGKVPNENIRLAARIMWRVEREGTGLTEGCLVSVDDLQNHVEHFGEEEQKDLRVDVDTFLQYWPPQSQQFSMQYISHIFGVINCNGFTLSDQRGLQAVGVGIFPNLGLVNHDCWPNCTVIFNNGNHEAVKSMFHTQMRIELRALGKISEGEELTVSYIDFLNVSEERKRQLKKQYYFDCTCEHCQKKLKDDLFLGVKDNPKPSQEVVKEMIQFSKDTLEKIDKARSEGLYHEVVKLCRECLEKQEPVFADTNIYMLRMLSIVSEVLSYLQAFEEASFYARRMVDGYMKLYHPNNAQLGMAVMRAGLTNWHAGNIEVGHGMICKAYAILLVTHGPSHPITKDLEAMRVQTEMELRMFRQNEFMYYKMREAALNNQPMQVMAEPSNEPSPALFHKKQ
B4: Centrosomal protein of 55 kDa (Homo sapiens), Q53EZ4 (parent)
chain: MSSRSTKDLIKSKWGSKPSNSKSETTLEKLKGEIAHLKTSVDEITSGKGKLTDKERHRLLEKIRVLEAEKEKNAYQLTEKDKEIQRLRDQLKARYSTTTLLEQLEETTREGERREQVLKALSEEKDVLKQQLSAATSRIAELESKTNTLRLSQTVAPNCFNSSINNIHEMEIQLKDALEKNQQWLVYDQQREVYVKGLLAKIFELEKKTETAAHSLPQQTKKPESEGYLQEEKQKCYNDLLASAKKDLEVERQTITQLSFELSEFRRKYEETQKEVHNLNQLLYSQRRADVQHLEDDRHKTEKIQKLREENDIARGKLEEEKKRSEELLSQVQFLYTSLLKQQEEQTRVALLEQQMQACTLDFENEKLDRQHVQHQLHVILKELRKARNQITQLESLKQLHEFAITEPLVTFQGETENREKVAASPKSPTAALNESLVECPKCNIQYPATEHRDLLVHVEYCSK
partner: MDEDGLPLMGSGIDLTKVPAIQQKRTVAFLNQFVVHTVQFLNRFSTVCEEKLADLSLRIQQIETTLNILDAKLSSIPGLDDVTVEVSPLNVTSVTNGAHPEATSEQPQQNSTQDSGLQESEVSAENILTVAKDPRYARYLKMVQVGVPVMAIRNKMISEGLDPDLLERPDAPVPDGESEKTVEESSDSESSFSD
B5: Kinetochore protein NDC80 homolog (Homo sapiens), O14777 (parent)
chain: MKRSSVSSGGAGRLSMQELRSQDVNKQGLYTPQTKEKPTFGKLSINKPTSERKVSLFGKRTSGHGSRNSQLGIFSSSEKIKDPRPLNDKAFIQQCIRQLCEFLTENGYAHNVSMKSLQAPSVKDFLKIFTFLYGFLCPSYELPDTKFEEEVPRIFKDLGYPFALSKSSMYTVGAPHTWPHIVAALVWLIDCIKIHTAMKESSPLFDDGQPWGEETEDGIMHNKLFLDYTIKCYESFMSGADSFDEMNAELQSKLKDLFNVDAFKLESLEAKNRALNEQIARLEQEREKEPNRLESLRKLKASLQGDVQKYQAYMSNLESHSAILDQKLNGLNEEIARVELECETIKQENTRLQNIIDNQKYSVADIERINHERNELQQTINKLTKDLEAEQQKLWNEELKYARGKEAIETQLAEYHKLARKLKLIPKGAENSKGYDFEIKFNPEAGANCLVKYRAQVYVPLKELLNETEEEINKALNKKMGLEDTLEQLNAMITESKRSVRTLKEEVQKLDDLYQQKIKEAEEEDEKCASELESLEKHKHLLESTVNQGLSEAMNELDAVQREYQLVVQTTTEERRKVGNNLQRLLEMVATHVGSVEKHLEEQIAKVDREYEECMSEDLSENIKEIRDKYEKKATLIKSSEE
partner: B4 partner

Variants of: B1
Settings: with ntaq1_human NTAQ1, Q96HA8

effect of a mutation on the interaction | Variant
with no effect | Y34C

Variants of: B2
Settings: with ribc2_human RIBC2, Q9H4K1

effect of a mutation on the interaction | Variant
with no effect | L30V

Variants of: B3
Settings: with bhe40_human BHLHE40, O14503
Chain of bhe40_human BHLHE40, O14503 (O14503 whole entry): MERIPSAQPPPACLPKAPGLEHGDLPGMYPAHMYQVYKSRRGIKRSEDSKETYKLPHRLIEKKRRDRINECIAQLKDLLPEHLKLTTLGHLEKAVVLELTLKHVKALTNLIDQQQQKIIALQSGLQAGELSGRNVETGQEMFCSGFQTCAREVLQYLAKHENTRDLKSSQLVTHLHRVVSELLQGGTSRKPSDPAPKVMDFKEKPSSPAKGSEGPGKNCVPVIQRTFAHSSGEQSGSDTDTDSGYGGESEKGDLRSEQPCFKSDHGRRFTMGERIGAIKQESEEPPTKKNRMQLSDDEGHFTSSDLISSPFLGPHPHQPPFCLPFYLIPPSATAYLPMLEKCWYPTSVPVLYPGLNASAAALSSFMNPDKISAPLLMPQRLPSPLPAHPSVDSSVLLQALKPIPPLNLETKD

effect of a mutation on the interaction | Variant
with no effect | R441W

Variants of: B4
Settings: with wasc3_human WASHC3, Q9Y3C0

effect of a mutation on the interaction | Variant
with no effect | L59F

Variants of: B5
Settings: with wasc3_human WASHC3, Q9Y3C0

effect of a mutation on the interaction | Variant
with no effect | A605P
